Test results from the supplement of paper PMC10126150.
± gives the standard deviation of the averaged measurements.

Tested on: ATP
Assay: switch fluorescence ratio, 500 uM ATP over buffer (Cy3 cluster intensity, sum of 5 cycles each) (fold (ratio)); higher = stronger signal-on switching upon ATP binding; sequences stand for … in TCGTCGGCAGCGTCAGATGTGTATAAGAGACAGTTTTTTTTTTTTTTTTTTTTTTTTT…TC
Settings: aptamer strand: ATP DNA aptamer (quencher-CACCTGGGGGAGTATTGCGGAGGAAGG + anchor), 100 nM annealed; ATP concentration: 500 uM
Procedure, shortened: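 Cy3-labelled switching-strand clusters on a modified Illumina MiSeq flow-cell were annealed to 100 nM quencher-labelled ATP aptamer, imaged in selection buffer, then imaged after 15 min with 500 uM ATP at 22 °C. Five buffer/ATP cycles ran, with NaOH stripping and re-annealing between them. The fluorescence ratio is summed target-cycle over summed buffer-cycle Cy3 intensity per cluster, averaged per switch-domain sequence. Clusters outside 100-1000 RFU were excluded.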
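Further: ATP exposure 15 min at 22 °C before imaging.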

| Sequence | switch fluorescence ratio |
| --- | --- |
| TAGCACTATC | 1.35 ± 0.076 |
| TAGCAGAGGG | 1.01 ± 0.023 |
| TAGCAGTATT | 1.07 ± 0.065 |
| TAGCATCTGG | 0.98 ± 0.039 |
| TAGCATCTTT | 0.98 ± 0.067 |
| TAGCATGTAC | 5.22 ± 0.65 |
| TAGCATTGTG | 1.02 ± 0.022 |
| TAGCCAGCTC | 0.996 ± 0.034 |
| TAGCCGCTTT | 1.065 ± 0.0087 |
| TAGCGAAACT | 1.14 ± 0.032 |
| TAGCGATGCG | 1.031 ± 0.0042 |
| TAGCGCAGGC | 0.996 ± 0.025 |
| TAGCGGGCCG | 1.01 ± 0.039 |
| TAGCGGGGCA | 0.996 ± 0.046 |
| TAGCGGGTAC | 1.28 ± 0.087 |
| TAGCGGGTCA | 0.966 ± 0.012 |
| TAGCGGTTGT | 0.999 ± 0.021 |
| TAGCGTGTAG | 1.02 ± 0.022 |
| TAGCGTTAGG | 1.029 ± 0.0049 |
| TAGCGTTTTT | 0.97 ± 0.018 |
| TAGCTCGTTT | 0.995 ± 0.038 |
| TAGCTGGGGC | 1.02 ± 0.037 |

| Sequence | switch fluorescence ratio |
| --- | --- |
| TAGCTGTAAT | 1.02 ± 0.046 |
| TAGCTGTCAC | 1.04 ± 0.04 |
| TAGCTGTTGT | 0.993 ± 0.027 |
| TAGCTTTTTT | 1.002 ± 0.0045 |
| TAGGAAAAAG | 0.975 ± 0.013 |
| TAGGAATGGG | 0.989 ± 0.034 |
| TAGGACGCGG | 1.04 ± 0.052 |
| TAGGACTCAT | 1.009 ± 0.0082 |
| TAGGAGCAGG | 1.09 ± 0.021 |
| TAGGAGGCTA | 0.976 ± 0.035 |
| TAGGAGGTAT | 1.01 ± 0.048 |
| TAGGAGGTTT | 1.067 ± 0.0013 |
| TAGGAGTAAC | 0.9812 ± 0.0037 |
| TAGGAGTTAT | 1.01 ± 0.04 |
| TAGGATGCAG | 0.957 ± 0.042 |
| TAGGATGGCT | 0.959 ± 0.072 |
| TAGGATGGGT | 0.99 ± 0.017 |
| TAGGATGGTT | 0.984 ± 0.013 |
| TAGGATTCTC | 0.979 ± 0.023 |
| TAGGATTGGC | 1.04 ± 0.018 |
| TAGGCCTGGG | 1 ± 0.0033 |
| TAGGCGAGTT | 0.98 ± 0.0021 |

| Sequence | switch fluorescence ratio |
| --- | --- |
| TAGGCGGAGC | 1.033 ± 0.0063 |
| TAGGCGGATA | 1.008 ± 0.0023 |
| TAGGCGGGTG | 1.03 ± 0.023 |
| TAGGCGTACG | 1.08 ± 0.006 |
| TAGGCTAGGT | 1.017 ± 0.0047 |
| TAGGCTGAGG | 1.002 ± 0.0063 |
| TAGGCTGTAC | 2.84 ± 1.6 |
| TAGGCTTAGC | 0.9671 ± 0.0069 |
| TAGGCTTTTT | 0.9925 ± 0.0075 |
| TAGGGAAAAC | 1.05 ± 0.12 |
| TAGGGAAATT | 1.04 ± 0.021 |
| TAGGGACGTT | 0.988 ± 0.013 |
| TAGGGAGGGA | 0.9801 ± 0.0069 |
| TAGGGAGTCA | 0.971 ± 0.019 |
| TAGGGATAGT | 0.9986 ± 0.0052 |
| TAGGGATATA | 0.985 ± 0.035 |
| TAGGGATCCC | 1.04 ± 0.028 |
| TAGGGCAAGT | 1.01 ± 0.016 |
| TAGGGCACGG | 1.02 ± 0.035 |
| TAGGGCATTT | 1.03 ± 0.056 |
| TAGGGCCACG | 1.01 ± 0.018 |
| TAGGGCGGGG | 0.988 ± 0.025 |

| Sequence | switch fluorescence ratio |
| --- | --- |
| TAGGGCTTAA | 0.993 ± 0.042 |
| TAGGGGAAAT | 0.994 ± 0.024 |
| TAGGGGAACC | 0.9693 ± 0.0092 |
| TAGGGGACGT | 0.992 ± 0.063 |
| TAGGGGAGGC | 0.984 ± 0.016 |
| TAGGGGATAG | 1.02 ± 0.032 |
| TAGGGGCGGC | 1.01 ± 0.056 |
| TAGGGGCGGG | 0.971 ± 0.025 |
| TAGGGGGAAG | 0.9792 ± 0.0033 |
| TAGGGGGACG | 1.04 ± 0.068 |
| TAGGGGGATT | 1.014 ± 0.0089 |
| TAGGGGGCGT | 0.987 ± 0.0032 |
| TAGGGGGGAC | 1.19 ± 0.34 |
| TAGGGGGTCT | 1.21 ± 0.47 |
| TAGGGGTACT | 1.41 ± 0.61 |
| TAGGGGTATG | 1.06 ± 0.096 |
| TAGGGGTCTC | 1.07 ± 0.038 |
| TAGGGGTGGG | 1.0453 ± 0.00085 |
| TAGGGGTGTA | 1 ± 0.04 |
